The record followed here is publication PMC7350762.

For the test, the target named is Myc-tagged MKL-1 (1–705) (MKL-1△TAD) (UniProt Q969V6).
Chain of UniProt Q969V6 (Q969V6 1-705): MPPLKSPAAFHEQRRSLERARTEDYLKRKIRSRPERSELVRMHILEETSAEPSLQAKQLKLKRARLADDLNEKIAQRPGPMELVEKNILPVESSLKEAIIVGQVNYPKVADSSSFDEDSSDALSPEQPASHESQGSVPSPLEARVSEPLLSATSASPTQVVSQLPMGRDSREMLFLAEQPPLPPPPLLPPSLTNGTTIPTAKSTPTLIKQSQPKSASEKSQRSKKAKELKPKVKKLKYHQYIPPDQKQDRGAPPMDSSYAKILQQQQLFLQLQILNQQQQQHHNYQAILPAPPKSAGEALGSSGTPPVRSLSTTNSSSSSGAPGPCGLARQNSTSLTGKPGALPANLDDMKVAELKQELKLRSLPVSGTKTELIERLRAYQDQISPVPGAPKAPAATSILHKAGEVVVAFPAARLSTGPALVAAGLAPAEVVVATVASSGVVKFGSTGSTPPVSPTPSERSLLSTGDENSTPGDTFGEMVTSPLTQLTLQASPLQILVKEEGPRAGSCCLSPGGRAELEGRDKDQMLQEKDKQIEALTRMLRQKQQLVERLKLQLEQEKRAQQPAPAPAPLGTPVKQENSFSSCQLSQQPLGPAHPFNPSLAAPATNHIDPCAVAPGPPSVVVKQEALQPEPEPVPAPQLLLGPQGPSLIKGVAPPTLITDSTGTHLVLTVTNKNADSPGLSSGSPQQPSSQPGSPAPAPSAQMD

Substance “Flag-tagged STAT5b (WT-STAT5b) (from UniProt P51692 1-787) (natural protein)” registered a reduction in MKL-1 transactivation of the Foxp3 reporter (luciferase assay, HEK-293 T cells) by the mutation of the TAD of MKL-1 of 60%.
